Patent CN114605551A

Legend:
CA24-2人腹水 [1] = experiment: ELISA OD450/630, antibody 15.625 ng/ml captured on goat anti-mouse IgG, CA24-2 human ascites, HRP-labelled same antibody
CA24-2人腹水 [2] = experiment: ELISA OD450/630, antibody 7.813 ng/ml captured on goat anti-mouse IgG, CA24-2 human ascites, HRP-labelled same antibody
CA24-2人腹水 [3] = experiment: ELISA OD450/630, antibody 31.25 ng/ml captured on goat anti-mouse IgG, CA24-2 human ascites, HRP-labelled same antibody
CA24-2人腹水 [4] = experiment: ELISA OD450/630, antibody 62.5 ng/ml captured on goat anti-mouse IgG, CA24-2 human ascites, HRP-labelled same antibody
CA24-2人腹水 [5] = experiment: ELISA OD450/630: supernatant of transiently transfected CHO cells diluted 1000-fold, captured on goat anti-mouse IgG, CA24-2 human ascites, HRP-anti-CA24-2 detection; wells without supernatant OD <0.1
CA24-2人腹水 [6] = experiment: ELISA OD450/630, antibody 0 ng/ml (blank well), CA24-2 human ascites, HRP-labelled same antibody
CA24-2人腹水 [7] = experiment: ELISA OD450/630, antibody 125 ng/ml captured on goat anti-mouse IgG, CA24-2 human ascites, HRP-labelled same antibody

OD450 (CA24-2人腹水 [1]): 0.329 OD | OD450 (CA24-2人腹水 [2]): 0.246 OD | OD450 (CA24-2人腹水 [3]): 0.734 OD | OD450 (CA24-2人腹水 [4]): 1.46 OD | OD450 (CA24-2人腹水 [5]): > 1 OD | OD450 (CA24-2人腹水 [6]): 0.052 OD | OD450 (CA24-2人腹水 [7]): 1.63 OD
B1: 实施例1的抗CA24-2抗体(WT) (antibody, mouse IgG1, kappa, V domains shown)
VH: EVKLVESGGGLVQPGGSLRLTCATSAFTFSDYYMEWVRQPPGKALEWLGFIRKKADGYTTEYSASIKGRFTISRDDSQNILYLQMNTLRAEDSATYYCARGISTATGVAYWGQGTLVTVSA
VL: DIVMTQSPSSLALSVGQKVTMSCKSSQSIVNTSNQKNYLAWYQQKPGQSPKLLVYWASTRETGVPDRFIGSGSGTDFTLAISSVQAEDLADYYCQQHYSVPFTFGSGTKLEIKR
